Legend:
[1] = biological target: T1, human soluble CD4 (sCD4) (human, UniProt P01730 26-396); experiment: competition ELISA on plate-coated sCD4; competitor: fixed concentration of HRP-labeled iMab
T1 construct: also called human CD4

[2] = biological target: CD4 receptor on the target cells of the virus neutralization assay (human, UniProt P01730 26-458); experiment: cell-based or functional assay
[3] = biological target: T1, human soluble CD4 (sCD4); experiment: SPR, Biacore-3000

B1: m36 (other)
VH: QVQLVQSGGGLVQPGGSLRLSCAASAFDFSDYEMSWVRQAPGKGLEWIGEINDSGNTIYNPSLKSRVTISRDNSKNTLYLQMNTLRAEDTAIYYCAIYGGNSGGEYWGQGTLVTVSS
notes: also called m36 polypeptide
binding result [1]: no binding

B2: iMabm36 fusion antibody (bispecific antibody, human IgG1, kappa)
heavy: QVQLQQSGPEVVKPGASVKMSCKASGYTFTSYVIHWVRQKPGQGLDWIGYINPYNDGTDYDEKFKGKATLTSDTSTSTAYMELSSLRSEDTAVYYCAREKDNYATGAWFAYWGQGTLVTVSSASTKGPSVFPLAPSSKSTSGGTAALGCLVKDYFPEPVTVSWNSGALTSGVHTFPAVLQSSGLYSLSSVVTVPSSSLGTQTYICNVNHKPSNTKVDKKVEPKSCDKTHTCPPCPAPEFEGGPSVFLFPPKPKDTLMISRTPEVTCVVVDVSHEDPEVKFNWYVDGVEVHNAKTKPREEQYNSTYRVVSVLTVLHQDWLNGKEYKCKVSNKALPASIEKTISKAKGQPREPQVYTLPPSRDELTKNQVSLTCLVKGFYPSDIAVEWESNGQPENNYKTTPPVLDSDGSFFLYSKLTVDKSRWQQGNVFSCSVLHEALHSHYTQKSLSLSPGKLEGGGGSGGGGSGGGGSGQVQLVQSGGGLVQPGGSLRLSCAASAFDFSDYEMSWVRQAPGKGLEWIGEINDSGNTIYNPSLKSRVTISRDNSKNTLYLQMNTLRAEDTAIYYCAIYGGNSGGEYWGQGTLVTVSS
light: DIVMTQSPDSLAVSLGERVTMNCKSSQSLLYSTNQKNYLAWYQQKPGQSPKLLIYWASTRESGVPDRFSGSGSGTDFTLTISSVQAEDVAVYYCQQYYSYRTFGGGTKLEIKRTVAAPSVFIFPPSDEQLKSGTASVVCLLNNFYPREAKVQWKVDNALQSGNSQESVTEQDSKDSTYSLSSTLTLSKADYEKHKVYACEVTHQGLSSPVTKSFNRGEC
IC50 (read off the curve), virus G23 [Virus (G23] [2]: ~0.2 nM

B3: iMab mutant E95A (CDR-H3 ARAKDNYATGAWFA) (antibody, V domains shown)
VH: QVQLQQSGPEVVKPGASVKMSCKASGYTFTSYVIHWVRQKPGQGLDWIGYINPYNDGTDYDEKFKGKATLTSDTSTSTAYMELSSLRSEDTAVYYCARAKDNYATGAWFAYWGQGTLVTVSS
VL: DIVMTQSPDSLAVSLGERVTMNCKSSQSLLYSTNQKNYLAWYQQKPGQSPKLLIYWASTRESGVPDRFSGSGSGTDFTLTISSVQAEDVAVYYCQQYYSYRTFGGGTKLEIK
Kd [3]: 7.7 nM | koff [3]: 0.0048 s⁻¹ | kon [3]: 620000 M⁻¹ s⁻¹
